This is an account of results in patent publication US20200317768A1 (published 2020).

In assay [1] the target is T1, cynomolgus monkey FcγRIIIaS extracellular domain with C-terminal His-tag (cynomolgus monkey, UniProt Q8SPW2 21-206 at identity 1.00)).
T1 construct: Expressed in FreeStyle 293 cells and purified; also called cyno FcγRIIIaS; cynoFcγRIIIaS; not shown: C-terminal His-tag
T1 chain: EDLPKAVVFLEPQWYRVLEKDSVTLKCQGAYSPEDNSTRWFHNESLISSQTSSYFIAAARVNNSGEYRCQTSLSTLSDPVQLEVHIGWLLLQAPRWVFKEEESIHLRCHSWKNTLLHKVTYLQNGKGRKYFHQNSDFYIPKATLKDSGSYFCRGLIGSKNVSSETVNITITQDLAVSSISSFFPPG
Description: SPR (Biacore), antibody captured on chip, FcgR extracellular domain as analyte, 25 C. Background: Surface plasmon resonance follows binding to a sensor surface in real time, without labels.

The target of assay [2] is T2, Cynomolgus monkey latent myostatin (cynomolgus monkey, UniProt Q95J86 25-266; Q95J86 267-375).
T2 construct: signal 1-24; also called Cyno latent myostatin
T2 sequence 1: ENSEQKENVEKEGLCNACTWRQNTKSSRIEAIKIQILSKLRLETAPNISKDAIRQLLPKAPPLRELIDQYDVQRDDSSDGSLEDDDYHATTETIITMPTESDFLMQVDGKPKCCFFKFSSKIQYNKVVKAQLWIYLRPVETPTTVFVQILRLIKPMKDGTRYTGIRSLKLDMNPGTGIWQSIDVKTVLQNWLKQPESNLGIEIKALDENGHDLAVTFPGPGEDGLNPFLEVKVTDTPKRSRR
T2 sequence 2: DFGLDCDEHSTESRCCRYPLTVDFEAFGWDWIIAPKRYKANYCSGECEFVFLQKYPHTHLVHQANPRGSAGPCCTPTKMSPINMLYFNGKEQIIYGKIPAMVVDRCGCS
Description: SPR (BIACORE T200), 37 C, pH5.8, avidity condition (capture 185 RU), 1:1 fit; pH 5.8. As to the method:
(§1) The kinetic parameters of anti-latent myostatin antibodies against human, cynomolgus monkey (cyno), and mouse latent myostatin were assessed at 37° C. at pH7.4 using a BIACORE® T200 instrument (GE Healthcare). ProA/G (Pierce) was immobilized onto all flow cells of a CM4 chip using amine coupling kit (GE Healthcare). Anti-latent myostatin antibody and analytes were prepared in ACES pH7.4 (20 mM ACES, 150 mM NaCl, 1.2 mM CaCl₂), 0.05% TWEEN® 20, 0.005% NaN₃). […] Then human, cyno, or mouse latent myostatin was injected at 3.125 to 50 nM prepared by two-fold serial dilution, followed by dissociation. The sensor surface was regenerated with 25 mM NaOH. Kinetic parameters were determined by processing and fitting the data to a 1:1 binding model using BIACORE® T200 Evaluation software, version 2.0 (GE Healthcare).
(§2) All experimental settings were the same as in Example 7, except that measurements were also performed in ACES pH5.8 buffer in addition to ACES pH7.4 condition. Some antibodies were only measured against human latent myostatin. Antibody capture level was aimed at 185 RU and 18.5 RU, for avidity and affinity assay, respectively. Kinetic parameters were determined using 1:1 Binding fitting using BIACORE® T200 Evaluation software, version 2.0 (GE Healthcare).

The target in the next assay is T3, Mouse latent myostatin (mouse, UniProt O08689 26-267; O08689 268-376).
T3 construct: signal 1-24
T3 sequence 1: T2 sequence 1 with N2G, Q5R, K6E, T19A, K25R, S26Y, K59R, V107A, E140K, N173S
T3 sequence 2: T2 sequence 2
Described as above. As to the method: as §1, §2

Another assay deals with T4, Human latent myostatin (human, UniProt O14793 25-266; O14793 267-375).
T4 construct: Biotinylated in the ELISAs; also called human myostatin latent form
T4 sequence 1: T2 sequence 1 with A52V
T4 sequence 2: T2 sequence 2
Description: SPR (BIACORE), additional dissociation phase at pH5.8 after dissociation at pH7.4, Scrubber 2.0 fit. As to the method:
Each amino acid in the CDRs was individually mutated to histidine using In-Fusion HD Cloning Kit (Clontech Inc, or Takara Bio company) according to the manufacturer's instructions. […] All histidine-substituted variants were evaluated by a modified BIACORE® assay as compared to that described above. Briefly, an additional dissociation phase at pH5.8 was integrated into the BIACORE® assay immediately after the dissociation phase at pH7.4. This is to assess the pH-dependent dissociation between antibody (Ab) and antigen (Ag) from the complexes formed at pH7.4 as opposed to the corresponding dissociation at pH5.8. The dissociation rate at pH5.8 buffer was determined by processing and fitting data using the Scrubber 2.0 (BioLogic Software) curve fitting software.
Antibodies with a combination of these mutations in the CDRs were then generated.

Residue numbers refer to the chain shown, from its start.

B1: M103205H795-MY172 / M103202L889-SK1 (antibody, human IgG1, kappa)
heavy: QVTLKESGPVLVKPTETLTLTCTVSGIDLSHDDISWVRQAPGKGLEWVGIISYAGSTYYASWAKGRLTISKDTSKNQVVLTMTNMDPVDTATYYCARGVPAYSHGGDLWGQGTLVTVSSASTKGPSVFPLAPSSKSTSGGTAALGCLVKDYFPEPVTVSWNSGALTSGVHTFPAVLQSSGLYSLSSVVTVPSSSLGTQTYICNVNHKPSNTKVDKKVEPKSCDKTHTCPPCPAPELLNGPSVFLFPPKPKDTLMISRTPEVTCVVVDVSEEDPEVKFNWYVDGVEVHNAKTKPREEQYNSTYRVVSVLTVLHQDWLNGKEYKCKVSNKALPAPIEKTISKAKGQPREPQVYTLPPSREEMTKNQVSLTCLVKGFYPSDIAVEWESNGQPENNYKTTPGVLDSDGSFFLYSKLTVDKSRWQQGNVFSCSVMHEALHNHYTQKSLSLSP
light: DIVMTQSPATLSLSPGERATLSCTSSQSVYHANWLSWFQQKPGQPPKLLIYWASTLAYGVPSRFSGSGSGTDFTLTISSLQPEDAATYYCAGGYGGGRYAFGQGTKVEIKRTVAAPSVFIFPPSDEQLKSGTASVVCLLNNFYPREAKVQWKVDNALQSGNSQESVTEQDSKDSTYSLSSTLTLSKADYEKHKVYACEVTHQGLSSPVTKSFNRGEC
notes: Position 396 variant derived from MY052, expressed with M103202L889-SK1 as light chain
In the case of B1, in assay [1], the Kd is 3300 nM.

B2: M103205H795-MY180 / M103202L889-SK1 (antibody, human IgG1, kappa)
heavy: B1 heavy with G398S
light: B1 light
notes: as for B1
Turning to B2, the Kd in assay [1] is 3100 nM.

B3: M103205H795-MY181 / M103202L889-SK1 (antibody, human IgG1, kappa)
heavy: B1 heavy with G398T
light: B1 light
notes: as for B1
Take B3: in assay [1], the Kd stood at 4100 nM.

B4: M103205H795-MY183 / M103202L889-SK1 (antibody, human IgG1, kappa)
heavy: B1 heavy with G398W
light: B1 light
notes: as for B1
In turn, B4 returned a Kd in assay [1] of 3500 nM.

B5: M103205H795-MY174 / M103202L889-SK1 (antibody, human IgG1, kappa)
heavy: B1 heavy with G398I
light: B1 light
notes: as for B1
B5 showed a Kd in assay [1] of 2500 nM.

B6: M103205H795-MY179 / M103202L889-SK1 (antibody, human IgG1, kappa)
heavy: B1 heavy with G398R
light: B1 light
notes: as for B1
Consider B6, for which the Kd in assay [1] was 2700 nM.

B7: M103205H795-MY173 / M103202L889-SK1 (antibody, human IgG1, kappa)
heavy: B1 heavy with G398H
light: B1 light
notes: as for B1
Molecule B7 came in with a Kd in assay [1] of 3100 nM.

B8: M103205H795-MY182 / M103202L889-SK1 (antibody, human IgG1, kappa)
heavy: B1 heavy with G398V
light: B1 light
notes: as for B1
Regarding B8, the Kd in assay [1] is 3500 nM.

B9: M103205H795-MY184 / M103202L889-SK1 (antibody, human IgG1, kappa)
heavy: B1 heavy with G398Y
light: B1 light
notes: as for B1
B9 displayed a Kd in assay [1] of 3300 nM.

B10: M103205H795-MY175 / M103202L889-SK1 (antibody, human IgG1, kappa)
heavy: B1 heavy with G398K
light: B1 light
notes: as for B1
In turn, B10 showed a Kd in assay [1] of 2600 nM.

B11: M103205H795-MY176 / M103202L889-SK1 (antibody, human IgG1, kappa)
heavy: B1 heavy with G398L
light: B1 light
notes: as for B1
Take B11: the Kd in assay [1] amounted to 2700 nM.

B12: M103205H795-MY178 / M103202L889-SK1 (antibody, human IgG1, kappa)
heavy: B1 heavy with G398Q
light: B1 light
notes: as for B1
In turn, B12 gave a Kd in assay [1] of 3000 nM.

B13: M103205H795-MY177 / M103202L889-SK1 (antibody, human IgG1, kappa)
heavy: B1 heavy with G398N
light: B1 light
notes: as for B1
B13: in assay [1], the Kd was found to be 2900 nM.

B14: MS_M103205H000-SG1/M103202LO00-SK1 (antibody, human IgG1, kappa, V domains shown)
VH: QVTLKESGPVLVKPTETLTLTCTVSGIDLSSYDISWVRQAPGKGLEWVGIISYAGSTYYASWAKGRLTISKDTSKNQVVLTMTNMDPVDTATYYCARGVPAYSTGGDLWGQGTLVTVSS
VL: DIVMTQSPATLSLSPGERATLSCQSSQSVYDNNWLSWFQQKPGQPPKLLIYWASTLASGVPSRFSGSGSGTDFTLTISSLQPEDAATYYCAGGYGGGLYAFGQGTKVEIKR
notes: Humanized MST1032, not pH-dependent; also called MS1032LO00-SG1; Ab001
On to B14, for which, in assay [2], the Kd was 0.00883 nM; the koff – broadly, a measure of how fast the partners let go of each other – came to 1.58e-05 s⁻¹; the kon – broadly, a measure of how fast the partners come together – was 1.79e+06 M⁻¹ s⁻¹. In the assay with Mouse latent myostatin, this molecule displayed a Kd of 0.0087 nM, a koff of 2.02e-05 s⁻¹ and a kon of 2.32e+06 M⁻¹ s⁻¹. For the same molecule, in the assay with Human latent myostatin, the koff amounted to 2.92e-05 s⁻¹.
